Assay results published in US20250145724A1 (TWIST BIOSCIENCE, published 2025).

Tests used:
[1] = target: T1, hA1 receptor (human, UniProt P30542 1-326); assay: In vitro specificity, flow cytometry MFI at 100 nM IgG on hA1
T1 construct: whole, on cells
T1 sequence (looked up): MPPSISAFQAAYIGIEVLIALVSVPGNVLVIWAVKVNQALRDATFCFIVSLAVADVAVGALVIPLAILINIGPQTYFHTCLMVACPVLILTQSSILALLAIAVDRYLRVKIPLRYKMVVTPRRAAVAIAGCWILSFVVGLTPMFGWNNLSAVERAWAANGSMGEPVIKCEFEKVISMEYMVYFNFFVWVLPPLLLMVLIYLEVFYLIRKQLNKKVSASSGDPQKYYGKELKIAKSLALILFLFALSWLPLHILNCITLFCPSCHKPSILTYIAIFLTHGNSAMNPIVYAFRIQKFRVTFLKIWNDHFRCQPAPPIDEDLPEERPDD

[2] = target: T2, hA3 receptor (human, UniProt P0DMS8 1-318); assay: In vitro specificity, flow cytometry MFI at 100 nM IgG on hA3
T2 construct: whole, on cells
T2 sequence (looked up): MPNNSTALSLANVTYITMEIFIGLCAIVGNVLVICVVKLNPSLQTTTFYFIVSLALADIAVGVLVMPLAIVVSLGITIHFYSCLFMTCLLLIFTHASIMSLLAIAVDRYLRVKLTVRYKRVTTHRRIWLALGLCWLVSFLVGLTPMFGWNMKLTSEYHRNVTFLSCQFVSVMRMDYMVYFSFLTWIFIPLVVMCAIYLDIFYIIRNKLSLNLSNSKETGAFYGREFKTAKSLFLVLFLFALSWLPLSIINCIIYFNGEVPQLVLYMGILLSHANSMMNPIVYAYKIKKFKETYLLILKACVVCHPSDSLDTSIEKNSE

[3] = target: T3, hA2b receptor (human, UniProt P29275 1-332); assay: In vitro specificity, flow cytometry MFI at 100 nM IgG on hA2b
T3 construct: whole, on cells; also called adenosine A2B receptor
T3 sequence (looked up): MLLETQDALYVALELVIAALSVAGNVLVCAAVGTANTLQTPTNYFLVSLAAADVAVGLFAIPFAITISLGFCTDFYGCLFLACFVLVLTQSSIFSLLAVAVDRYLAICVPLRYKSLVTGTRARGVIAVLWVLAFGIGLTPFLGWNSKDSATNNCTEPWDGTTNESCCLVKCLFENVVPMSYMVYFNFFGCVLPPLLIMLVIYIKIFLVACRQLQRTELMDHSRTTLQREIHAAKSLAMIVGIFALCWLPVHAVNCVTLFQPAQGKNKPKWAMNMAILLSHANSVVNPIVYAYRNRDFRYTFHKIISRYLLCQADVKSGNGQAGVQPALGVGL

Measured: binding result

B1: A2A-81 (antibody, V domains shown)
VH: QVQLQESGPGLVKPSGTLSLTCAVSGGSISSSNWWSWVRQPPGKGLEWIGEIYHSGSTNYNPSLKSRVTISVDKSKNQFSLKLGSVTAADTAVYYCAREVVSGLYGTIFDYWGQGTLVTVSS
VL: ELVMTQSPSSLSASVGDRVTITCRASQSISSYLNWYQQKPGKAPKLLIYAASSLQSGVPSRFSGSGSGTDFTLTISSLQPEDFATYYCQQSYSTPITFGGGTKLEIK
notes: Tested as IgG
no binding (tested: 100 nM): all assays above
